US20190367616A1

What was measured:
[1] = target: cynomolgus PD-1 ECD (Acro Biosystems cat. no. PD1-05223) (cynomolgus) (UniProt B0LAJ3); assay: SPR, antibody on sensor, monomeric PD-1 ECD in solution
[2] = target: human PD-1 expressed on CHO-S cells (human) (UniProt Q15116); assay: flow cytometry PD-L1 blocking assay on CHO-S cells transiently expressing human PD-1; non-specific control antibody; ligand R-PE PD-L1-Fc (16.4 nM final)
human PD-1 expressed on CHO-S cells (human), sequence (Q15116 25-288): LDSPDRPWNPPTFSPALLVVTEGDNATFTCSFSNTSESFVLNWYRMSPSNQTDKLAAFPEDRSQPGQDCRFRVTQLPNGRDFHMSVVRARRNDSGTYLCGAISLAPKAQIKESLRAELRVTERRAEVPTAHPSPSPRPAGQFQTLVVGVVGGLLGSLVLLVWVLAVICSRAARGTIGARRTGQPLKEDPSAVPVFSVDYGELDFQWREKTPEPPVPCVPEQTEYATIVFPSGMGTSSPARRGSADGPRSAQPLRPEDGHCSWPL

cynomolgus PD-1 ECD (Acro Biosystems cat. no. PD1-05223) (cynomolgus), sequence (B0LAJ3 entry or part of it limits assumed): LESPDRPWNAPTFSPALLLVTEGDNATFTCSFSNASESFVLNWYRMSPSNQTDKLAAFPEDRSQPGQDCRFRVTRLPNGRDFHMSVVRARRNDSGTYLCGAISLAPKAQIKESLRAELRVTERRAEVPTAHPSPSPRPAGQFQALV

Row | Substance | Kd [1] [nM] | % of cells hu IgG binding negative / PD-L1 binding negative (lower left quadrant) [2] [%] | % of cells hu IgG binding negative / PD-L1 binding positive (lower right quadrant) [2] [%] | % of cells hu IgG binding positive / PD-L1 binding negative (upper left quadrant, 'blocking') [2] [%]
1 | pembrolizumab/Keytruda (antibody) | 3.6 | – | – | –
2 | nivolumab analogue (antibody) | 1.5 | – | – | –
3 | control mAb (antibody) | – | 66.5 | 32.6 | 0.28
